Measured values taken from US6855515B1, “Autoantigenic fragments, methods and assays” (Merck & Co., Inc., priority 1998, dated 2005).

Tests used:
caspase-8 = caspase-8 (Homo sapiens, UniProt Q14790); assay: Cleavage of substrates by purified caspase-8; type: biochemical; conditions: 50 nM purified caspase-8; HeLa lysates treated with iodoacetamide, or radiolabeled IvTT substrate
Description: To confirm that these substrates were not cleaved by group III caspases, the substrates were incubated with 50 nM purified caspase-8. Cleavage assays were performed in HeLa cell lysates in which endogenous caspases had first been irreversibly inactivated by 1 mM iodoacetamide (4° C. for 15 min), prior to addition of 5 mM DTT to facilitate exogenous caspase-8 activity. No cleavage of topoisomerase-1, Mi-2, U1-70 kDa, PARP, Ku-70, RNA polymerase II large subunit, SRP-72, NuMA or Ki-67 occurred. Caspase-8 was indeed active in these lysates, as evidenced by robust caspase-3 cleavage products of PARP and U1-70 kDa seen when the IAA ‘poisoning’ step was omitted. Radiolabeled PMS1 and PMS2 (generated by IvTT) were also not cleaved by purified caspase-8.

granzyme B = biological target: T1, granzyme B (Homo sapiens, UniProt P10144); assay: Susceptibility of autoantigens to cleavage by purified granzyme B (HeLa lysate immunoblot or immunoprecipitates); type: biochemical; conditions: in vitro
T1 construct: Some of these preparations were used for the further purification of granzyme B (Tschopp, 1994); endogenous in cells; host or cells: YT cells (human NK cell line), cytoplasmic granules
T1 sequence (P10144 21-247): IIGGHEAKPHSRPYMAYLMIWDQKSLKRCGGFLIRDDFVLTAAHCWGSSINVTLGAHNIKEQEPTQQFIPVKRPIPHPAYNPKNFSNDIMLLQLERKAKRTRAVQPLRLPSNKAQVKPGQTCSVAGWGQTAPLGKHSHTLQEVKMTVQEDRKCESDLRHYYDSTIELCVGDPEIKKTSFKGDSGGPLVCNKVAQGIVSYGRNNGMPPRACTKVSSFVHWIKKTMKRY
Description: To determine whether susceptibility to direct cleavage by granzyme B was an isolated feature of PARP, NuMA and DNA-PKcs shown above, or whether it was a more general feature of autoantigens, a variety of well-defined autoantigens selected from across the spectrum of systemic autoimmune diseases were tested for susceptibility to cleavage by purified granzyume B. The efficiency of cleavage of the substrates by purified granzyme B was also noted (Table 3). Initially, a series of autoantibodies of well-defined specificity were used to immunoblot lysates of HeLa cells that had been incubated in vitro with or without granzyme B. Lysates were pre-treated with iodoacetamide (IAA) to prevent interference by endogenous caspase activity.
To perform these studies, HeLa cells were radiolabeled with [^35S] methionine/cysteine, and proteins were immunoprecipitated using human autoantibodies. Protein A-agarose beads containing washed precipitated proteins were resuspended in buffer supporting the activity of granzyme B, and incubated in the absence or presence of added purified granzyme B. Reaction products were visualized using SDS-PAGE and fluorography. To confirm the validity of this approach, several different autoantigens known to be cleaved by granzyme B, as well as several autoantigens and non-autoantigens that are not cleaved by granzyme B, were tested. Using autoantibodies that both immunoblot and immunprecipitate, the cleavage profiles obtained using granzyme B to cleave molecules in lysates (followed by detection with immunoblotting), and after immunoprecipitation (from [^35S]methionine-labeled HeLa lysate) were compared. Identical results were obtained using these 2 methods for cleaved autoantigens (topoisomerase-1, Mi-2, RNA polymerase II large subunit, Ku-70, PARP, and NOR-90), uncleaved autoantigens (Ku-80, Ro 60k), and control substrates (β-tubulin, vinculin). […] Of note, all these additional autoantigens (with the exception of RNA polymerase I) are targeted in autoimmune myositis. However, two other tRNA synthetases (threonyl tRNA synthetase and glycyl tRNA synthetase) that are also autoantigens in autoimmune myositis, were not cleaved using this approach.

caspase-3 [1] = biological target: T2, caspase-3 (Homo sapiens, UniProt P42574); assay: Cleavage of endogenous substrates in HeLa lysates by added purified caspase-3, with inhibitors; type: biochemical; conditions: 100 nM inhibitor, HeLa lysate, 105 pM caspase-3, 37° C. 60 min
T2 construct: made in house
T2 sequence (P42574 29-175 limits assumed): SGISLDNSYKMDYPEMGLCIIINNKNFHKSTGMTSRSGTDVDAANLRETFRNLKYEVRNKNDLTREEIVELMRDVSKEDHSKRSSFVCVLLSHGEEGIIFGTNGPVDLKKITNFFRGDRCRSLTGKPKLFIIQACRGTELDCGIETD
T2 sequence (P42574 176-277 limits assumed): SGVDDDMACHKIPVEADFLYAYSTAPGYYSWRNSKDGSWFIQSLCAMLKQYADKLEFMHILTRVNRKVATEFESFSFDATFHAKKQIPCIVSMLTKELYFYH
Description: (§1) Control HeLa lysates were prepared using methods commonly applied in the art, as described in Casciola-Rosen et al., 1994. […] The mixtures were incubated for 15 mn on ice to facilitate binding of the inhibitors to proteases prior to performing cleavage reactions at 37° C. for 60 min. After electrophoresing the samples on 10% SDS-polyacrylamide gels containing 0.087% bisacrylamide, the intact proteins and their cleaved fragments were visualized by immunoblotting.

caspase-1 = biological target: T3, caspase-1 (Homo sapiens, UniProt P29466); conditions: cited from earlier work
T3 sequence (P29466 120-297 limits assumed): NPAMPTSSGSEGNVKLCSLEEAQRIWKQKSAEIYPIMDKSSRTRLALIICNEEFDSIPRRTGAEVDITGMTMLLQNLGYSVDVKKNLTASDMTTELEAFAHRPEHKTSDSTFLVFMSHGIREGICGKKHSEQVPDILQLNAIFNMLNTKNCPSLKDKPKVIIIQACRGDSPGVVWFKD
T3 sequence (P29466 317-404 limits assumed): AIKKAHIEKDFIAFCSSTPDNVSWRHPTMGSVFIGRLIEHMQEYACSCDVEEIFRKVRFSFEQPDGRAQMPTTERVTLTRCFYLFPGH

caspase-3 [2] = biological target: T2, caspase-3; conditions: cited from earlier work
caspase-7 = biological target: T4, caspase-7 (Homo sapiens, UniProt P55210); conditions: cited from earlier work
T4 sequence (P55210 24-198 limits assumed): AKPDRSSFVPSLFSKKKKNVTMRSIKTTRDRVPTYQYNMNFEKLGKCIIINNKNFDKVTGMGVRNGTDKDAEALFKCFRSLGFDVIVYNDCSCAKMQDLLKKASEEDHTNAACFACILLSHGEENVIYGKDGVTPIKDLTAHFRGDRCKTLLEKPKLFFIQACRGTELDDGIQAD
T4 sequence (P55210 207-303 limits assumed): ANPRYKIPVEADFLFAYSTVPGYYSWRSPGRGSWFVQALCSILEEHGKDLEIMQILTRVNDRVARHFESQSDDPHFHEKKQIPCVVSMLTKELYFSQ

caspase-10 = biological target: T5, caspase-10 (Homo sapiens, UniProt Q92851); conditions: cited from earlier work
T5 sequence (Q92851 220-415 limits assumed): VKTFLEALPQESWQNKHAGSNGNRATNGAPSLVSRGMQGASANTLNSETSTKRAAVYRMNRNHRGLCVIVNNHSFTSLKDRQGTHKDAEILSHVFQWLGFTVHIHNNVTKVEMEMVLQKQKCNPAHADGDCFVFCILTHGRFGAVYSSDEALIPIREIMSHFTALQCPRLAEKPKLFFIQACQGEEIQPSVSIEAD
T5 sequence (Q92851 416-521 limits assumed): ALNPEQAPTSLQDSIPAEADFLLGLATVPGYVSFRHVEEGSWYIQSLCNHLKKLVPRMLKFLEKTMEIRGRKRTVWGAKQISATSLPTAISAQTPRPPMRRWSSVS

[3] = system: endogenous DNA-PKcs, NuMA and PARP in HeLa cell lysates; assay: Cleavage of endogenous substrates in HeLa lysates after adding purified granzyme B, with caspase inhibitors; type: biochemical; conditions: for cleavage of PARP: inhibitor added 15 minutes prior to 12.5 nM granzyme B, 100 nM Ac-DEVD-CHO or 2 mM iodoacetamide
Description: as §1

K562 cells = assay: Substrate cleavage in intact K562 cells during YT cell granule content-induced cytotoxicity; type: cell-based; conditions: 100 μM Ac-DEVD-CHO
Description: Intact cytoplasmic granules were purified from YT cells, and the granule contents were isolated using known methods (Tschopp, 1994). Some of these preparations were used for the further purification of granzyme B (Tschopp, 1994). Purity of the protease was confirmed by silver staining of overloaded SDS-polyacrylamide gels. The cytotoxic effects of YT granule contents were determined as follows: Jurkat T cells or K562 cells were radiolabeled with 100 μCi/ml [^51Cr] sodium chromate, washed, resuspended in Ca^2+-free HBSS, and then incubated with granule contents (0-5 μl) and 1 mM CaCl2 for increasing times. The percentage specific [^51Cr] was calculated using the following formula: % specific lysis=[(sample cpm−spontaneous cpm)/(maximum cpm−spontaneous cpm)]×100. […] Aliquots containing 3.4×10^5 cells were incubated for a further 90 min at 37° C. with 1 mM EDTA or 1 mM Ca^2+ and 2 μl of YT granule contents (which induces 20-40% specific chromium release in 60 min, and characteristic internucleosomal DNA degradation. The total reaction volume of each sample was 30 μl. The reactions were terminated by boiling in SDS gel buffer and samples were electrophoresed and immunoblotted as described above. Experiments were performed using 2 different preparations of granule contents and 4 different cell types (K562, Jurkat, HeLa, primary human myoblasts).

[4] = system: K562 erythroleukemia cells; assay: Substrate cleavage in Fas-negative K562 target cells attacked by LAK cells; type: cell-based
Description: LAK cells were obtained by culturing human PBMCs for 4 days in LAK medium (RPMI supplemented with 10 mM Hepes pH 7.4, L-glutamine, 2% autologous plasma), and 1000 Cetus units/ml of hrIL-2 (Chiron Therapeutics, Emeryville, Calif.) (Topalian et al., 1989). […] After 2 washes with PD, cells were lysed and boiled in SDS sample buffer, and PARP, DNA-PKcs and NuMA were assayed by immunoblotting as described above.

HeLa cells = assay: Confocal immunofluorescence of morphologic changes in HeLa cells exposed to YT cell granule contents; type: cell-based; conditions: 100 μM Ac-DEVD-CHO
Description: Morphologic experiments were performed on HeLa cells grown on No. 1 glass coverslips. […] 25 μl of HBSS containing 2 mM CaCl2 was then added to each coverslip (mixed well by repeated, gentle aspiration), followed by incubation in a humidified chamber at 37° C. for 60 min. […] Coverslips were mounted on glass slides with Permafluor (Lipshaw, Pittsburgh, Pa.), and confocal microscopy was performed on a scanning confocal microscopy system (LSM 410, Carl Zeiss, Inc., Thornwood, N.J.).

[5] = 100 μM Ac-DEVD-CHO, LAK:K562 5:1

Chain of caspase-8 (Q14790 217-374 limits assumed, species assumed): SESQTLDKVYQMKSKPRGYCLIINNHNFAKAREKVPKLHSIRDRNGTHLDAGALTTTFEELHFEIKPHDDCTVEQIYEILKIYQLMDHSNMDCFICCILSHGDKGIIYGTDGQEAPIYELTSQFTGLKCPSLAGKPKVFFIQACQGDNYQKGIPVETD
Chain of caspase-8 (Q14790 385-479 limits assumed, species assumed): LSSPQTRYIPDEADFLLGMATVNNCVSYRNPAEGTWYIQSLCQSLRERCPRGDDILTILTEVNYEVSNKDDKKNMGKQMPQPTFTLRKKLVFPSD

Compound: Topoisomerase I: autoantigen
- cleavage by caspase-8 (caspase-8): No cleavage
- susceptibility to cleavage by granzyme B (granzyme B; listed as topoisomerase-1): efficiently cleaved

Compound: vinculin: control substrate, non-autoantigen [reference compound]
- susceptibility to cleavage by granzyme B (granzyme B): not cleaved

Compound: Ro 60k: ribonucleoprotein autoantigen
- susceptibility to cleavage by granzyme B (granzyme B): uncleaved
- susceptibility to cleavage by granzyme B (granzyme B; listed as Ro 60 kDa): not susceptible to cleavage

Compound: U1-70 kDa: autoantigen cleaved by caspases during apoptosis
- cleavage by caspase-8 (caspase-8): No cleavage
- susceptibility to cleavage by granzyme B (granzyme B): efficiently cleaved

Compound: PMS2: autoantigen
- cleavage by caspase-8 (caspase-8): not cleaved
- susceptibility to cleavage by granzyme B (granzyme B): cleaved

Compound: N-(N-Ac-Tyr-Val-Ala)-3-amino-4-oxobutanoic acid [Ac-YVAD-CHO]
- substrate fragments generated by the activity of caspase-3 (caspase-3 [1]): unaffected
- Ki (caspase-1): 0.6 nM
- Ki (caspase-3 [2]): > 10000 nM
- Ki (caspase-7): > 10000 nM
- Ki (caspase-10): 408 nM

Compound: RNA polymerase I: autoantigen
- susceptibility to cleavage by granzyme B (granzyme B): cleaved

Compound: Ro52 kDa: ribonucleoprotein autoantigen
- susceptibility to cleavage by granzyme B (granzyme B): not susceptible to cleavage

Compound: Ku-70: autoantigen
- cleavage by caspase-8 (caspase-8): No cleavage
- susceptibility to cleavage by granzyme B (granzyme B): efficiently cleaved

Compound: nuclear mitotic apparatus protein [NuMA]
- cleavage by caspase-8 (caspase-8): No cleavage

Compound: Ku-80: uncleaved autoantigen
- susceptibility to cleavage by granzyme B (granzyme B): uncleaved

Compound: poly(ADP-ribose)polymerase [PARP]
- cleavage by caspase-8 (caspase-8): No cleavage
- susceptibility to cleavage by granzyme B (granzyme B): efficiently cleaved

Compound: N-(N-Ac-Asp-Glu-Val)-3-amino-4-oxobutanoic acid [Ac-DEVD-CHO]
- cleavage of PARP [3]: almost entirely abolished
- generation of caspase-3-specific fragments of NuMA (185 kDa) and DNA-PKcs (150 kDa C-terminal) ([3]; inhibitor added prior to granzyme B): abolished
- generation of 150 kDa and 120 kDa DNA-PKcs fragments (K562 cells; YT granule contents): entirely inhibited
- generation of the 89 kDa PARP fragment (K562 cells; YT granule contents plus Ca2+): completely inhibited
- production of granzyme B-specific cleavage fragments of DNA-PKcs and NuMA (K562 cells; YT granule contents plus Ca2+): not inhibited
- 100 kDa granzyme B-specific fragment of DNA-PKcs [4, 5]: insensitive
- inhibition of generation of caspase-3-specific fragments of DNA-PKcs [4, 5]: > 90%
- PARP cleavage ([4]; 100 μM Ac-DEVD-CHO, LAK:K562 5:1, 4 h): entirely abolished
- cleavage of PMS1 ([4]; intact cell killing by LAK cells, Ac-DEVD-CHO added): unaffected
- granule content-induced surface blebbing, nuclear fragmentation, apoptotic bodies, redistribution of nuclear autoantigens (HeLa cells): prevented

Compound: KI-67: autoantigen
- cleavage by caspase-8 (caspase-8): No cleavage
- susceptibility to cleavage by granzyme B (granzyme B): cleaved

Compound: NC(=O)CI [iodoacetamide]
- cleavage of PARP [3]: almost entirely abolished
